Seven molecules from patent US20220380801A1, “TRIPARTITE SYSTEMS FOR PROTEIN DIMERIZATION AND METHODS OF USE” (priority 2019, published 2022) can be followed below.

The target of one test is BSA (Bos taurus, UniProt P02769). Kind of test: Biacore 8K BSA control. Format: binding. More on the design: key: # = no binding; * = minimal non-specific binding. The following applies: 10 nM simeprevir present. The protocol:
(§1) The HCV NS3/4A PR (S139A), or BSA control, was diluted 1:4 (1.25-20 nM)±10 nM simeprevir in 10 mM Hepes pH 7.4, 150 mM NaCl, 0.05% Surfactant P20, 0.01% DMSO, ensuring constant simeprevir and DMSO concentration. The samples were flowed over the chip at 50 μl/min using single cycle kinetics, with 120 sec association and 600 sec dissociation. The chip surface was regenerated with two 20 sec pulses of 10 mM Glycine-HCl pH 3.0. The final sensorgrams were analysed using the Biacore 8K Evaluation Software and the affinity constant KD was determined using a 1:1 binding model. The same method was used for measuring the affinity of the HCV NS3/4A PR mutants for PRSIM_23 with minor deviations. The mutants were diluted 1:4 (2.5-40 nM)±simeprevir in 10 mM Hepes pH 7.4, 150 mM NaCl, 0.05% Surfactant P20, 0.08% DMSO, ensuring constant simeprevir and DMSO concentration. The samples were flowed over the chip at 50 μl/min using single cycle kinetics, with 180 sec association and 600 sec dissociation.

Test [1] has as its target T1, HCV NS3/4A PR (S139A) (Hepatitis C virus subtype 1a, UniProt A8DG50, A1066T/I1043Q/I1044E/L1039E/L1040E/L1047Q/S1165A, form not given). The test can be described thus: Phage ELISA. It is filed as binding. The following applies: phage ELISA signal with simeprevir divided by signal without simeprevir. The protocol: Specific binding to HCV NS3/4A PR (S139A) was assessed by phage ELISA using single phagemid scFv or Tn3 clones induced for expression as described ((Osbourn et al. 1996)). Briefly, individual TG1 colonies encoding phage clones from round 3 and round 4 selection outputs, and negative control clones, were grown in 96 well plates at […] shaking at 280 rpm to log phase in media containing 100 μg/ml ampicillin and 2% (w/v) glucose. Helper phage was then added to each well and the plates incubated at […] for 1 hour, shaking at 150 rpm. Plates were then centrifuged at 4500 rpm for 10 minutes at room temperature and the media was removed and replaced with media containing 100 μg/ml ampicillin and 50 μg/ml kanamycin. Plates were then incubated overnight at 25° C., shaking at 280 rpm. The following day, phage preparations were blocked by adding an equal volume of 2×PBS containing 6% (w/v) skimmed milk powder (Marvel) to each well of the plate.
Biotinylated HCV NS3/4A PR (S139A) was used to coat 96 well streptavidin-coated plates at 5 μg/ml […] in the presence and absence of a 3-fold excess of simeprevir (5.6 μM). Coated plates were washed with PBS and blocked with PBS containing 3% (w/v) skimmed milk powder (Marvel) for one hour. Following this blocking step, the plate wells were washed three times with PBS, prior to adding the blocked phage preps (produced as described in the phage rescue section). Phage preps were incubated with the antigens for 1 hour at room temperature prior to washing three times with PBS/Tween 20 (0.1% v/v). Phage that bound specifically to the antigen coated plate were detected using an anti-M13 phage-HRP tagged antibody (GE Healthcare), followed by detection using 3,3′, 5,5′-Tetramethylbenzidine (TMB; Sigma). The detection reaction was stopped using 0.5 M H2S04 and plates were read using a […] at 450 nm. Fluorescent readings determined for each clone binding to biotinylated HCV NS3/4A PR (S139A) in the presence of simeprevir was compared to those binding in the absence of simeprevir, by dividing the signal observed in the presence of simeprevir to the signal observed in the absence of simeprevir.

Test [2] addresses T1, HCV NS3/4A PR (S139A). The test can be described thus: Biacore 8K binding kinetics of PRSIM binding molecules. As to the method: The scFv and Tn3 PRSIM binding molecules were covalently immobilised to a CM5 chip surface using standard amine coupling techniques at a concentration of 1 μg/ml in 10 mM sodium acetate pH 4.5.
as §1

B1: PRSIM_23: Tn3 protein specific for HCV NS3/4A PR (S139A):simeprevir complex, SEQ ID NO: 5 (protein)
chain: RLDAPSQIEVKDVTDTTALITWVDPRYDDIWWFELTYGIKDVPGDRTTIKLYLNDPYYSIGNLKPDTEYEVSLISYTGDSYSRSGSNPAKITFKTGL
modifications: PRSIM_23
For B1, the BSA control entry with BSA is reported as “#”. Moreover, the “Binding fold change [(HCV protease + Simeprevir binding)/HCV protease alone]” value (“Binding fold change” for short) in the test with HCV NS3/4A PR (S139A) [1] is on record as 23.8. For the same molecule, in the test with HCV NS3/4A PR (S139A) [2] (10 nM simeprevir present), the dissociation constant (Kd) amounted to 6.3 nM, the Rmax is given as 284 RUs, the ka was 5.03e+06 M⁻¹ s⁻¹ and the kd was 0.0318 s⁻¹. For the same molecule, in the test with HCV NS3/4A PR (S139A) [2] (‘WT’ (S139A), 20 nM simeprevir), binding was characterised by a dissociation constant (Kd) of 5.4 nM, the Rmax was 215 RUs, the ka was determined as 5.59e+09 M⁻¹ s⁻¹ and the kd came to 31 s⁻¹.

B2: PRSIM_33: Tn3 PRSIM binding molecule, SEQ ID NO: 7 (protein)
chain: RLDAPSQIEVKDVTDTTALITWYPPGRWYDDIWYFELTYGIKDVPGDRTTIKLARGDDVYSIGNLKPDTEYEVSLISWGPDRGDRAGSNPAKITFKTGL
modifications: PRSIM_33
As for B2, in the test with BSA, the BSA control entry is “#”. In the test with HCV NS3/4A PR (S139A) [2] (10 nM simeprevir present), the Rmax was 171.9 RUs, the ka was found to be 3.65e+06 M⁻¹ s⁻¹ and the kd was 0.0303 s⁻¹.

B3: PRSIM_57: scFv specific for HCV NS3/4A PR (S139A):simeprevir complex, SEQ ID NO: 12 (protein)
scFv: QVQLVQSGAEVKKPGSSVKVSCKASGGTFSSYAISWVRQAPGQGLEWMGGIIPIFGTANYAQKFQGRVTITADESTSTAYMELSSLRSEDTAVYYCARHTNYITVFDYWGQGTLVTVSSGGGGSGGGGSGGGGSAQSVLTQPPSASGTPGQRVTISCSGSSSNIGSNTVNWYQQLPGTAPKLLIYSNNQRPSGVPDRFSGSKSGTSASLAISGLQSEDEADYYCAAWDHHWEQVVFGGGTKLTVL
modifications: PRSIM_57
For the molecule B3, the BSA control result with BSA was “#”. Also, the “Binding fold change” value with HCV NS3/4A PR (S139A) [1] is given as 15.7. In the test with HCV NS3/4A PR (S139A) [2] (10 nM simeprevir present), the dissociation constant (Kd) was 15 nM, the Rmax was 69.1 RUs, the ka was found to be 1.73e+07 M⁻¹ s⁻¹ and the kd was found to be 0.26 s⁻¹.

B4: PRSIM_75: scFv PRSIM binding molecule, SEQ ID NO: 15 (protein)
scFv: EVQLVQSGAEVKKPGSSVKVSCKASGGSFNSYTLDWVRQAPGQGLEWMGGIIPVFGSPNYGQKFQGRVTITADESTSTAYMELSSLKSDDTAVYYCARGLVYQPLDSWGRGTLVTVSSGGGGSGGGGSGGGGSAQAVLTQPSSASGTPGQRVTISCSGSSSNIGSYTVNWYQQFPGTAPKLLIYSNTQRPSGVPDRFSGSKSGTSASLAISGLQSEDEADYYCAAWDDSLNGWVFGGGTKVTVL
modifications: PRSIM_75
Regarding B4, the BSA control entry with BSA is reported as “#”. Besides, the “Binding fold change” value with HCV NS3/4A PR (S139A) [1] came to 6.9. In the test with HCV NS3/4A PR (S139A) [2] (10 nM simeprevir present), this molecule had a Kd of 0.3 nM, an Rmax of 88.8 RUs, a ka of 9.09e+06 M⁻¹ s⁻¹ and a kd of 0.00267 s⁻¹.

B5: PRSIM_04: scFv PRSIM binding molecule, SEQ ID NO: 11 (protein)
scFv: QVQLVQSGAEVKKPGSSVKVSCKASGGTFSSYAISWVRQAPGQGLEWMGGIIPIFGTANYAQKFQGRVTITADESTSTAYMELSSLRSEDTAVYYCARGMAHFYQFDLWGQGTLVTVSSGGGGSGGGGSGGGGSAQSVLTQPPSASGTPGQRVTISCSGSSSNIGSNTVNWYQQLPGTAPKLLIYSNNQRPSGVPDRFSGSKSGTSASLAISGLQSEDEADYYCAAGDHDHEHVVFGGGTKLTVL
modifications: PRSIM_04
In the case of B5, in the test with BSA, the BSA control result was “#”. Also, the “Binding fold change” value in the test with HCV NS3/4A PR (S139A) [1] came to 30.3. For the same molecule, in the test with HCV NS3/4A PR (S139A) [2] (10 nM simeprevir present), binding was put at a Kd of 11.2 nM, the Rmax was determined as 65.9 RUs, the ka was found to be 1.74e+07 M⁻¹ s⁻¹ and the kd worked out at 0.195 s⁻¹.

B6: PRSIM_72: scFv PRSIM binding molecule, SEQ ID NO: 14 (protein)
scFv: QVQLVQSGAEVKKPGSSVKVSCKASGGTFSSYAISWVRQAPGQGLEWMGGIIPIFGTANYAQKFQGRVTITADESTSTAYMELSSLRSEDTAVYYCARGMAHFYQFDLWGQGTLVTVSSGGGGSGGGGSGGGGSAQSVLTQPPSASGTPGQRVTISCSGSSSNIGSNTVNWYQQLPGTAPKLLIYSNNQRPSGVPDRFSGSKSGTSASLAISGLQSEDEADYYCAAGDHDHEHVVFGGGTKLTVL
modifications: PRSIM_72
As to B6, the BSA control result with BSA is recorded as “#”. In the test with HCV NS3/4A PR (S139A) [1], the “Binding fold change” value is reported as 12.5. In the test with HCV NS3/4A PR (S139A) [2] (10 nM simeprevir present), this molecule showed a Kd of 1 nM, an Rmax of 33.4 RUs, a ka of 1.18e+06 M⁻¹ s⁻¹ and a kd of 0.00118 s⁻¹.

B7: PRSIM_67: scFv PRSIM binding molecule, SEQ ID NO: 13 (protein)
scFv: EVQLVQSGAEVKKPGAAVRISCKTSGYVFTSYYVHWVRQAPGQGLEWMGVINPSGGNTNYAQKFQDRVTMTRDTSTTTVYMELSSLMFDDTAVYYCAKRDYGGPLANWGRGTLVTVSSGGGGSGGGGSGGGGSALSYELTQPPSVSEAPRQRVTISCSGSSSNIGNNAVNWYQQLPGKAPKLLIFYDDLLPSGVSDRFSGSKSGTSASLAISGLQSEDEADYYCAAWDDSLNGLVFGTGTKLTVL
modifications: PRSIM_67
In the case of B7, the BSA control result with BSA was “#”. In addition, the “Binding fold change” value in the test with HCV NS3/4A PR (S139A) [1] was determined as 12.7. For the same molecule, in the test with HCV NS3/4A PR (S139A) [2] (10 nM simeprevir present), the dissociation constant Kd amounted to 11.5 nM, the Rmax was 19.3 RUs, the ka was 1.97e+07 M⁻¹ s⁻¹ and the kd worked out at 0.226 s⁻¹.
